pKd: −log10 of the molar value.

Series [1] addresses Ago1 (RISC) (UniProt A1Z9J5). The experiment in a line: RBNS. The conditions noted are these: RBNS: 20 mM HEPES-KOH pH 7.9, 100 mM KOAc, 3.5 mM Mg(OAc)2, 0.05% CHAPS, 2 mM DTT, 8% glycerol, BSA, tRNA, 25 C, 2 h, filter binding: 25 mM HEPES-KOH pH 7.9 ….
Series [2] has as its target Ago1 (RISC) (UniProt A1Z9J5). The experiment in a line: double-filter binding. The settings on record: let-7 guide, RBNS: 20 mM HEPES-KOH pH 7.9, 100 mM KOAc, 3.5 mM Mg(OAc)2, 0.05% CHAPS, 2 mM DTT, 8% glycerol, BSA, tRNA, 25 C, 2 h, filter binding: 25 mM HEPES-KOH pH 7.9 ….
For another series, the target named is T1, PUM2 (Homo sapiens) (UniProt Q8TB72).
T1 sequence: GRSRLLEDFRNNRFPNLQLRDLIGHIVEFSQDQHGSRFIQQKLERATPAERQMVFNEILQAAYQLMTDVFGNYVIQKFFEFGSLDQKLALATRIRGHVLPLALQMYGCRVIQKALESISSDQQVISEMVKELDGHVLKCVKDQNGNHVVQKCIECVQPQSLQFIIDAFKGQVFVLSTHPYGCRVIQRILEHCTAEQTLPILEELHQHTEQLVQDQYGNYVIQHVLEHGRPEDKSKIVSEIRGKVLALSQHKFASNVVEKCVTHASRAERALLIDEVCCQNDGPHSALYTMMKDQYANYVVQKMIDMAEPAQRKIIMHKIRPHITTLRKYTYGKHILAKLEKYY
The experiment in a line: RBNS. The conditions noted are these: re-analysis of published RBNS data (ref 38); RBNS: 20 mM HEPES-KOH pH 7.9, 100 mM KOAc, 3.5 mM Mg(OAc)2, 0.05% CHAPS, 2 mM DTT, 8% glycerol, BSA, tRNA, 25 C, 2 h; filter binding: 25 mM HEPES-KOH pH 7.9 ….

Ago1 (RISC), sequence (A1Z9J5 entry or part of it): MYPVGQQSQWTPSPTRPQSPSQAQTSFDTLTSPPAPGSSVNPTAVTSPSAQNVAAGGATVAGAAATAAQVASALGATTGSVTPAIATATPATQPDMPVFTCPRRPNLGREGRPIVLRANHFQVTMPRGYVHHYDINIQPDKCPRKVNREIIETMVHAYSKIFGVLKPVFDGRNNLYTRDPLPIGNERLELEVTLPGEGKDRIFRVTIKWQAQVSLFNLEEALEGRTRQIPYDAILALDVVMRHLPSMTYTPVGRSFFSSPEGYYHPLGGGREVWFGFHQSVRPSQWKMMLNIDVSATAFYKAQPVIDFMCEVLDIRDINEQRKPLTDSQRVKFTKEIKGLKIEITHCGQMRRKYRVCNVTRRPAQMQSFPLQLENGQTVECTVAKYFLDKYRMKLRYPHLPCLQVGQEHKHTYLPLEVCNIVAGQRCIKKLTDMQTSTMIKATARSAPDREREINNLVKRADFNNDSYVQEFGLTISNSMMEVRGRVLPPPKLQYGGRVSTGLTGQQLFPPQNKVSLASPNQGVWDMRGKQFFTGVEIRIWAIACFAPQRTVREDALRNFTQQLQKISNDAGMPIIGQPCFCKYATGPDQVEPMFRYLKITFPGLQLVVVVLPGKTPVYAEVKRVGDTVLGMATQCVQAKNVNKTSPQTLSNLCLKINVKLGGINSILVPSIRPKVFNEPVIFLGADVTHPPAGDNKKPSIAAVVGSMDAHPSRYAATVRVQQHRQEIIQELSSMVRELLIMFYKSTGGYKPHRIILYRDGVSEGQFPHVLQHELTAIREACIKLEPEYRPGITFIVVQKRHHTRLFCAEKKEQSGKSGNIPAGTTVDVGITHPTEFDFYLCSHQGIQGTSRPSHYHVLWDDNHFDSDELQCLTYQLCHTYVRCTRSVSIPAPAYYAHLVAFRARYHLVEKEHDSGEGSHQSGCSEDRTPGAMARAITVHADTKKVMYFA

Broadly, the pKd is the negative decadic logarithm of the Kd, by convention in mol/L. In the series with Ago1 (RISC) [1] (let-7 guide), “CUACCUUB / UGAGGUAGUAGGUUGUAUAGU [let-7 / 7mer-m8,w2]” gave a pKd of 9.56.

The substance “let-7 guide / seed-matching target (Fig 1c)” gave a pKd with Ago1 (RISC) [2] (5' 32P target) of 11.30.

In the series with PUM2 (Homo sapiens), UGUAUAUA [PUM consensus site] had a negative-log Kd (pKd) of 9.92.

Regarding “UGAUCUUB / UGAGAUCAUUUUGAAAGCUGAUU [bantam / 7mer-m8,w2]”, the pKd with Ago1 (RISC) [1] (bantam guide) is 9.06.

In the case of “let-7 guide / fully complementary target (Fig 1c)”, in the series with Ago1 (RISC) [2], the pKd is 11.70.

Regarding “UCCGUCUB / UGGACGGAGAACUGAUAAGGGC [miR-184 / 7mer-m8,w2]”, in the series with Ago1 (RISC) [1] (miR-184 guide), the pKd is 9.81.

The values above are taken from article PMC12905440.
